Assay results: publication PMC10696041 (2023)

B1: MBP-CUB1CUB2 domains of PCPE-2, WT [human] / bone morphogenetic protein-1 [human] (parent complex)
chain 1: QSPERPVFTCGGILTGESGFIGSEGFPGVYPPNSKCTWKITVPEGKVVVLNFRFIDLESDNLCRYDFVDVYNGHANGQRIGRFCGTFRPGALVSSGNKMMVQMISDANTAGNGFMAMFSAAEPNERGDQYCGGLLDRPSGSFKTPNWPDRDYPAGVTCVWHIVAPKNQLIELKFEKFDVERDNYCRYDYVAVFNGGEVNDARRIGKYCGDSPPAPIVSERNELLIQFLSDLSLTADGFIGHYIFRPK
chain 2: AATSRPERVWPDGVIPFVIGGNFTGSQRAVFRQAMRHWEKHTCVTFLERTDEDSYIVFTYRPCGCCSYVGRRGGGPQAISIGKNCDKFGIVVHELGHVVGFWHEHTRPDRDRHVSIVRENIQPGQEYNFLKMEPQEVESLGETYDFDSIMHYARNTFSRGIFLDTIVPKYEVNGVKPPIGQRTRLSKGDIAQARKLYKCPACGETLQDSTGNFSSPEYPNGYSAHMHCVWRISVTPGEKIILNFTSLDLYRSRLCWYDYVEVRDGFWRKAPLRGRFCGSKLPEPIVSTDSRLWVEFRSSSNWVGKGFFAVYEAICGGDVKKDYGHIQSPNYPDDYRPSKVCIWRIQVSEGFHVGLTFQSFEIERHDSCAYDYLEVRDGHSESSTLIGRYCGYEKPDDIKSTSSRLWLKFVSDGSINKAGFAVNFFKEVDECSRPNRGGCEQRCLNTLGSYKCSCDPGYELAPDKRRCEAACGGFLTKLNGSITSPGWPKEYPPNKNCIWQLVAPTQYRISLQFDFFETEGNDVCKYDFVEVRSGLTADSKLHGKFCGSEKPEVITSQYNNMRVEFKSDNTVSKKGFKAHFFSEKRPALQPPRGRPHQLKFRVQKRNRTPQ

Variants of: B1
Assay: SPR; 50 nM MBP-CUB1CUB2; immobilized BMP-1 (1302 and 1492 RU); parent: 100; read off a plot

Variant	percent of parent
chain 1 R150A	~90 % binding / WT
chain 1 F87A	~84 % binding / WT
